Reference: US20200407419A1 (LONZA SALES, published 2020)

B1: exosomes with trimeric CD40L-PTGFRN construct pCB-766 (tag-less, lacking the C-terminal GFP) (ligand)
chain: MQKGDQNPQIAAHVISEASSKTTSVLQWAEKGYYTMSNNLVTLENGKQLTVKRQGLYYIYAQVTFCSNREASSQAPFIASLCLKSPGRFERILLRAANTHSSAKPCGQQSIHLGGVFELQPGASVFVNVTDPSQVSHGTGFTSFGLLKLGSGGSGGSGGSGMQKGDQNPQIAAHVISEASSKTTSVLQWAEKGYYTMSNNLVTLENGKQLTVKRQGLYYIYAQVTFCSNREASSQAPFIASLCLKSPGRFERILLRAANTHSSAKPCGQQSIHLGGVFELQPGASVFVNVTDPSQVSHGTGFTSFGLLKLGSGGSGGSGGSGMQKGDQNPQIAAHVISEASSKTTSVLQWAEKGYYTMSNNLVTLENGKQLTVKRQGLYYIYAQVTFCSNREASSQAPFIASLCLKSPGRFERILLRAANTHSSAKPCGQQSIHLGGVFELQPGASVFVNVTDPSQVSHGTGFTSFGLLKLSAGGGGSGGGGSRVVRVPTATLVRVVGTELVIPCNVSDYDGPSEQNFDWSFSSLGSSFVELASTWEVGFPAQLYQERLQRGEILLRRTANDAVELHIKNVQPSDQGHYKCSTPSTDATVQGNYEDTVQVKVLADSLHVGPSARPPPSLSLREGEPFELRCTAASASPLHTHLALLWEVHRGPARRSVLALTHEGRFHPGLGYEQRYHSGDVRLDTVGSDAYRLSVSRALSADQGSYRCIVSEWIAEQGNWQEIQEKAVEVATVVIQPSVLRAAVPKNVSVAEGKELDLTCNITTDRADDVRPEVTWSFSRMPDSTLPGSRVLARLDRDSLVHSSPHVALSHVDARSYHLLVRDVSKENSGYYYCHVSLWAPGHNRSWHKVAEAVSSPAGVGVTWLEPDYQVYLNASKVPGFADDPTELACRVVDTKSGEANVRFTVSWYYRMNRRSDNVVTSELLAVMDGDWTLKYGERSKQRAQDGDFIFSKEHTDTFNFRIQRTTEEDRGNYYCVVSAWTKQRNNSWVKSKDVFSKPVNIFWALEDSVLVVKARQPKPFFAAGNTFEMTCKVSSKNIKSPRYSVLIMAEKPVGDLSSPNETKYIISLDQDSVVKLENWTDASRVDGVVLEKVQEDEFRYRMYQTQVSDAGLYRCMVTAWSPVRGSLWREAATSLSNPIEIDFQTSGPIFNASVHSDTPSVIRGDLIKLFCIITVEGAALDPDDMAFDVSWFAVHSFGLDKAPVLLSSLDRKGIVTTSRRDWKSDLSLERVSVLEFLLQVHGSEDQDFGNYYCSVTPWVKSPTGSWQKEAEIHSKPVFITVKMDVLNAFKYPLLIGVGLSTVIGLLSCLIGYCSSHWCCKKEVQETRRERRRLMSMEMD

Experiments:
[1] = molecular target: IL-7 receptor (IL-7R) on PBMCs (UniProt P16871); assay: cell-based or functional assay
IL-7 receptor (IL-7R) on PBMCs, sequence (P16871 21-459 limits assumed): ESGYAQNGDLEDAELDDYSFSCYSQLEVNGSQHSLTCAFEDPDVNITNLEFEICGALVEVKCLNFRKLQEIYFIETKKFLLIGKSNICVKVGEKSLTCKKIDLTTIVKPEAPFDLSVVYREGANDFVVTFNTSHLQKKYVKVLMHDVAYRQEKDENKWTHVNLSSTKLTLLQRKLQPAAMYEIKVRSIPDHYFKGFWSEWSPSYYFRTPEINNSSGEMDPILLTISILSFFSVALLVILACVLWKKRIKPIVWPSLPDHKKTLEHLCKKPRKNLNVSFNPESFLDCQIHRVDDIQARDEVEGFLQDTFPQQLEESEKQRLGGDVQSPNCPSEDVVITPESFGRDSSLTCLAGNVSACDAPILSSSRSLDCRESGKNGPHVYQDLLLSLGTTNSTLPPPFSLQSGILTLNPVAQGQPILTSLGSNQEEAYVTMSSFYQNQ

CD40 on human B-cells = CD40 on human B-cells (human, UniProt P25942 21-277); assay: cell-based or functional assay
CD40 on human B-cells, sequence (P25942 21-277): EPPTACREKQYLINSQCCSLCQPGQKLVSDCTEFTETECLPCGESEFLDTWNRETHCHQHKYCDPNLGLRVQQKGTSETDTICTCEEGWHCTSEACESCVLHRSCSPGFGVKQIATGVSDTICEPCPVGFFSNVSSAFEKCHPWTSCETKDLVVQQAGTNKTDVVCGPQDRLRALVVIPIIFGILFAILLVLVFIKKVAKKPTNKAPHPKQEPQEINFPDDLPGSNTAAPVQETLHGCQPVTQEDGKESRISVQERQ

Row | IC50 (p/ml) of reduction of IL-7R levels on PBMCs [1] | EC50 of B-cell activation (CD69 positivity on B-cells), ng/mL of CD40L (CD40 on human B-cells) | EC50 of B-cell activation (CD69 positivity on B-cells), particles/mL (CD40 on human B-cells) | Molecule
1 | 1.1e+11 p/ml |  |  | IL-7 exosomes from the pDisplay plasmid encoding a fusion of IL-7 and PDGF Receptor (ligand)
2 |  | 1.89 ng/mL | 4.53e+08 particles/mL | exosomes with trimeric CD40L-PTGFRN construct pCB-527 (PTGFRN-trimeric CD40L-GFP) (ligand)
3 |  | 28.5 ng/mL |  | recombinant human CD40L (Biolegend, Catalog No. 591702) (from UniProt P29965 113-261) (ligand)
4 |  | 1.68 ng/mL | 6.63e+08 particles/mL | B1
